Measurements taken from the PETadex activity labels (doi:10.1016/j.bbrc.2018.11.148).

What was measured:
Conditions in all cases: pH 8; 30 °C; part of the chain shown
[1] = substrate: p-NP-C12
[2] = substrate: p-NP-C2
[3] = substrate: p-NP-C4
[4] = substrate: p-NP-C6
[5] = substrate: p-NP-C8

B1: unnamed (protein)
chain: MNFPRASRLMQAAVLGGLMAVSAAATAQTNPYARGPNPTAASLEASAGPFTVRSFTVSRPSGYGAGTVYYPTNAGGTVGAIAIVPGYTARQSSIKWWGPRLASHGFVVITIDTNSTLDQPSSRSSQQMAALRQVASLNGTSSSPIYGKVDTARMGVMGWSMGGGGSLISAANNPSLKAAAPQAPWDSSTNFSSVTVPTLIFACENDSIAPVNSSALPIYDSMSRNAKQFLEINGGSHSCANSGNSNQALIGKKGVAWMKRFMDNDTRYSTFACENPNSTRVSDFRTANCS
Question: B1 was tested. Which Km [1] did it give?
Answer: 2280 µM

Question: And the kcat [1]?
Answer: 1530 s⁻¹

Question: And the kcat/Km [1]?
Answer: 671000 M⁻¹ s⁻¹

Question: And the Km [2]?
Answer: 431 µM

Question: What about the kcat [2] of the same protein?
Answer: 1590 s⁻¹

Question: What about the kcat/Km [2] of the same protein?
Answer: 3.69e+06 M⁻¹ s⁻¹

Question: What about the Km [3] of the same protein?
Answer: 315 µM

Question: And the kcat [3]?
Answer: 1350 s⁻¹

Question: What about the kcat/Km [3] of the same protein?
Answer: 4.3e+06 M⁻¹ s⁻¹

Question: What about the Km [4] of the same protein?
Answer: 52.8 µM

Question: What about the kcat [4] of the same protein?
Answer: 1350 s⁻¹

Question: And the kcat/Km [4]?
Answer: 2.55e+07 M⁻¹ s⁻¹

Question: What about the Km [5] of the same protein?
Answer: 48.1 µM

Question: And the kcat [5]?
Answer: 519 s⁻¹

Question: What about the kcat/Km [5] of the same protein?
Answer: 1.08e+07 M⁻¹ s⁻¹
